{"source": "paper PMC10065947", "about": "(Nature chemical biology, 2022)", "binders": {"B1": {"name": "naïve fusion of WT Fyn-SH3 and WT COMT (enzyme)", "chain": "not shown"}}, "target": "TAMRA-APP12 (peptide S1) (TAMRA label (position not given); C-terminal amide)", "experiment": "fluorescence polarisation"}
{"binder": "B1", "values": [{"measurement": "Kd", "result": 330, "unit": "nM"}]}
